According to the nanobody polyreactivity screen of Harvey et al. (2022):

Assay: yeast display, Sf9 membrane polyspecificity reagent, FACS + sequencing; frameworks hold sequencing errors
Outline: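 In a synthetic yeast display library (Saccharomyces cerevisiae BJ5465), nanobody expression was induced with galactose for 36–48 hours. FACS gates were set low and high (top ~1%) using anti-HA fluorescence for expression and streptavidin fluorescence for binding of the Sf9 membrane reagent. Each polyreactivity label is drawn from the gate of origin.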

Sequence	polyreactivity (PSR sort gate)
QVQLVESGGGLVQAGGSLRLSCAASGRIFPYYAIGWYRQAPGKERELVASTNYADSVKGRFTISRDNAKNTVYLQMNSLKPEDTAVYYCNADSVYPPGSDYVVRDGNFDYWGQGTQVTVSS	low polyreactivity
QVQLVESGGGLVQAGGSLRLSCAASGRIFPYYAKRWYRQAPGKERELVAAITTRGGSTYDADSVKGRFTISRDNAKNTVYLQMNSLKPEDTAVYYCAAVTFGRMEYCGQGTQVTVSS	low polyreactivity
QVQLVESGGGLVQAGGSLRLSCAASGRIFPYYAMGWSRQAPGKERELVAAITSGGTTYYADSVKGRFTISRDNAKNTVYLQMNSLKPEDTAVYYCEYDYWGQGTQVTVSS	low polyreactivity
QVQLVESGGGLVQAGGSLRLSCAASGRIFPYYAMGWYRPAPGKERELVATISTAGSTNYADSVKGRFTISRDNAKNTVYLQMKSLKPEDTAVYYCATRNTWYHRGYDYWGQGTQVTVSS	low polyreactivity
QVQLVESGGGLVQAGGSLRLSCAASGRIFPYYAMGWYRQAPGKEREFVAAITSSGGTTYYADSVKGRFTISRDNAKNTVYLQMNSLKPEDTAVYYCFAVRLYALYAGRPYDYWGQGTQVTVSS	low polyreactivity
QVQLVESGGGLVQAGGSLRLSCAASGRIFPYYAMGWYRQAPGKERELVAAISSGTSTYYADSVKGRFTISRDNANNTVYLKMNSLKQEDTAVYYSNGRHRRGRFTHDYDYWGQGTQVTVTS	low polyreactivity
QVQLVESGGGLVQAGGSLRLSCAASGRIFPYYAMGWYRQAPGKERELVAAITRGGSRTYYADSVKGRFTISRDNAKNTVYLQMNSLKPEDTAVSYCARLDGFSASDHDYGGQGTQVTVSS	high polyreactivity
QVQLVESGGGLVQAGGSLRLSCAASGRIFPYYDMGWYRQAPGKERELVAAITSSGSTFYADSVKGRFTISRDNAKNTVYLQMNSLKPEDTAVYYCNTRDIRVRPYDYWGQGTQVTVSS	low polyreactivity
QVQLVESGGGLVQAGGSLRLSCAASGRIFQAYAMGWYRQAPGKERELVAAISRSGGGTYYADSVKGRFTISRDNAKNTVYLQMNSLKPEDTAVYYCNARGSTARGRGYWGQGTQVTVSS	high polyreactivity
QVQLVESGGGLVQAGGSLRLSCAASGRIFQAYAMGWYRQAPGKERELVASISYRGGITYYADSVKGRFTISRDNAKNTVYLQMNSLKPEDTAVYYCAAGRKGSMYYWGQGTQVTVSS	high polyreactivity
QVQLVESGGGLVQAGGSLRLSCAASGRIFQGYAMGWYRPAPGKERELGASIRTGGTTNYADSVKGRFTISRDNAKNTVYLQMNSLTPEDTAVYYCAKRYYGWYGNFDYWGQGTQVTVSA	high polyreactivity
QVQLVESGGGLVQAGGSLRLSCAASGRIFQGYAMGWYRQAPGKERELVAAITRSGGSTYYADSVKGRFTISRDNAKNTVYLQMNSLKPEDTAVYYCAASHYGLLEYWGQGTQVTVSS	low polyreactivity
QVQLVESGGGLVQAGGSLRLSCAASGRIFQGYVMGWYRQAQGQERELVAAITTGGSTYYADSVKGRFTISRDNAKNTVYLQMNSLKPEDTAVYYCNAVVYVSGYNPYIFGYWGQGTQVTVSS	low polyreactivity
QVQLVESGGGLVQAGGSLRLSCAASGRIFQKYAMGWYRQAPGKESELVAAISSGDSTYADSVKGRFTISRDNAKNTVYLQMNSLIPEDTAVYYCAVDLYDPWWYSYIGEYEYWGQGTQVSVSS	low polyreactivity
QVQLVESGGGLVQAGGSLRLSCAASGRIFQNYAMGWYRQAHGKERELVATISSGVSTYYADSVKGRFTISRDNAKNTVYLQMNSLKPEDTAVNYCAAYVPWFEMDYWGQGTQVTVSS	low polyreactivity
QVQLVESGGGLVQAGGSLRLSCAASGRIFQQYAMGWYRQAPGKEREVVAAISRGGSTYYADSVKGRFTISRDNAKNTVYLQMNSLKPEDTAVYYCAVRSRRGLKYDYWGQGTQVTVSS	high polyreactivity
QVQLVESGGGLVQAGGSLRLSCAASGRIFQRNAMGWYRQEPRKEREFVAAITKSGGGTYADSVKGRFTISRDNAKNTVYLQMNSLKPEDTAVYFCAADSRGEDYYYWGQGTQVTVSS	high polyreactivity
QVQLVESGGGLVQAGGSLRLSCAASGRIFQRNVMGWYRQAPGKERELVASITGGGTTNYAHSVKGRFTISRDNAKNTVYLPRNSLKPEDTAVYYCNRRQNVGRVSQYEYWGQGTQVTVSS	low polyreactivity
